Patent US20080286803A1 (NEDERLANDSE ORGANISATIE VOOR TOEGEPAST …, published 2008)

Biological target: wild-type pro-urokinase (natural activation site Pro-Arg-Phe-Lys-Ile-Ile-Gly-Gly) (human, UniProt P00749 21-431)
Assay: cell-based or functional assay

B1: purified recombinant MASP-2 (active form) (enzyme, UniProt O00187 16-686, looked up)
chain: TPLGPKWPEPVFGRLASPGFPGEYANDQERRWTLTAPPGYRLRLYFTHFDLELSHLCEYDFVKLSSGAKVLATLCGQESTDTERAPGKDTFYSLGSSLDITFRSDYSNEKPFTGFEAFYAAEDIDECQVAPGEAPTCDHHCHNHLGGFYCSCRAGYVLHRNKRTCSALCSGQVFTQRSGELSSPEYPRPYPKLSSCTYSISLEEGFSVILDFVESFDVETHPETLCPYDFLKIQTDREEHGPFCGKTLPHRIETKSNTVTITFVTDESGDHTGWKIHYTSTAQPCPYPMAPPNGHVSPVQAKYILKDSFSIFCETGYELLQGHLPLKSFTAVCQKDGSWDRPMPACSIVDCGPPDDLPSGRVEYITGPGVTTYKAVIQYSCEETFYTMKVNDGKYVCEADGFWTSSKGEKSLPVCEPVCGLSARTTGGRIYGGQKAKPGDFPWQVLILGGTTAAGALLYDNWVLTAAHAVYEQKHDASALDIRMGTLKRLSPHYTQAWSEAVFIHEGYTHDAGFDNDIALIKLNNKVVINSNITPICLPRKEAESFMRTDDIGTASGWGLTQRGFLARNLMYVDIPIVDHQKCTAAYEKPPYPRGSVTANMLCAGLESGGKDSCRGDSGGALVFLDSETERWFVGGIVSWGSMNCGEAGQYGVYTKVINYIPWIENIISDF
  absorbance change at 405 nm (activation of pro-urokinase, read with pyro-Glu-Gly-Arg-pNA): ~2 fold
